Laboratory results from US20200308241A1 (published 2020).

Tests used:
[1] = target: T1, Purified EGFR (R&D Systems, Minneapolis, Minn.) (Homo sapiens (Human), UniProt P00533 25-645); assay: EGF-EGFR binding assay
T1 construct: Bought protein coated on an ELISA plate; also called immobilized EGFR; EGF receptors
Description: (§1) Purified EGFR (R&D Systems, Minneapolis, Minn.) was diluted in coating buffer (0.2 M sodium carbonate/bicarbonate pH 9.4, 0.5 1 g/mL) and immobilized on an ELISA plate by incubation at 4° C. overnight. […] The peroxidase reaction was stopped 30 min after the addition of 0.5 M H₂SO₄ ([…]/well), and the absorbance was measured at 450 nm with a multichannel microtiter plate reader.

[2] = target: T1, Purified EGFR (R&D Systems, …); assay: ELISA, EGFR on the plate, his6-tagged ligand 0-50 nM, HRP anti-his6 detection
Description: as §1

Kd [1]: ~10 nM
Kd [2]: < 5 nM
B1: mGM-CSF-hEGF fusion protein of Example 1 (other)
chain: SPITVTRPWKHVEAIKEALNLLDDMPVTLNEEVEVVSNEFSFKKLTCVQTRLKIFEQGLRGNFTKLKGALNMTASYYQTYCPPTPETDCETQVTTYADFIDSLKTFLTDIPFECKKPGQKVPGVGVPGVGNSDSECPLSHDGYCLHDGVCMYIEALDKYACNCVVGYIGERCQYRDLKWWELRHHHHHH
notes: The assays call it his6-tagged; also called GM-CSF-EGF conjugate; GM-CSF-EGF fusion protein
